The record followed here is patent US20220119522A1.

Holding throughout (test): ELISA on biotinylated peptide captured by streptavidin; A450 normalised to isotype control
In experiment [1] the target is T1, human TREM2 full length stalk region peptide (aa 129-172) (human).
T1 sequence (peptide, biotinylated (site not stated)): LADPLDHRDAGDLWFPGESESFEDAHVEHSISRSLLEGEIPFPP

Experiment [2] deals with mouse TREM2 truncated stalk peptide (aa 149-163) (mouse) (UniProt Q99NH8).
Experiment [3] has as its target T2, human TREM2 truncated stalk peptide (aa 149-163) (human).
T2 sequence (peptide, biotinylated (site not stated)): SFEDAHVEHSISRSL

B1: CL0020124 (antibody, V domains shown)
VH: EVQLQQSGPVLVKPGASVKMSCKPSGYTFTDYYMNWVKQSHGKSLEWIGSINPYTGGSSYNQKFRGKATLTVDKSSSTAYMELNSLTSEDSAVYYCARGSYYSNLGFAYWGQGTLVTVSA
VL: DVQLTQSPSYLTASPGETITINCRASKSISKYLAWYQEKPGKTNKLLISSGSTLQSGIPSRFSGSGSGTDFTLTISSLEPEDFAMYYCQQYSEYPFTFGSGTKLEIK
On to B1, for which the fold over background (A450) worked out at 2.1 fold in experiment [1] and 1.7 fold in experiment [2].

B2: CL0020188 (antibody, V domains shown)
VH: EVKLLDSGGGLVQAGGSLRLSCAGSGFTFTDFYMSWIRQPPGKAPEWLGVIRNKANGYTAGYNPSVKGRFTISRDNTQNILYLQMNTLRAEDTAIYYCARLTYGFDYWGQGVMVTVSS
VL: DIVMTQGALPNPVPSGESASITCQSSKSLLHSNGKTYLNWYLQRPGQSPQLLIYWMSTRASGVSDRFSGSGSGTDFTLKISSVEAEDVGVYYCQQFLEYPFTFGSGTKLEIK
For B2, the fold over background (A450) was 3 fold in experiment [3] and 0.9 fold in experiment [2].

B3: CL0020107 (antibody, V domains shown)
VH: QVQLQQPGAELVKPGASVKMSCRASGYTFTNYWISWVKQRPGQGLEWIGDIYPHSTSTNYNERFRSKATLTVDKSSTTAYMQLSSLTSEDSAVYYCAREGFGISAWGQGTTLTVSS
VL: QIVLTQSPAIMSASPGEKVTITCSATSSVSYMHWFQQKPGTSPKLWIYSTSNLASGVPARFSGSGSGTSHSLTISRMEAEDAATYYCQQRSSYPLTFGSGTKLELK
Consider B3, for which the fold over background (A450) in experiment [2] came out at 1.6 fold.

B4: CL0020096 (antibody, V domains shown)
VH: QIQLVQSGPELRKPGETVKISCKASGYTFTTYGMSWVKQAPGKGLKWMGWINTYSGLPRHSDDFKGRFAFSLETSASTAYLQINNLKNEDTATYFCAREVYYGSRKTAWFAYWGQGTLVTVSA
VL: DLVMSQSPSSLAVSVGERVTMSCKSSQSLLYSNDQKNYLAWYQQIPGQSPKLLIYWASTRESGVPDRFTGSGSGTDFTLTISSVKAEDLAVYFCQQYYSYPPTFGAGTKLELK
B4: the fold over background (A450) is 2.2 fold in experiment [3] and 1.3 fold in experiment [2].

B5: CL0020308 (antibody, V domains shown)
VH: QVQLKQSGPSLVQPSQSLSITCTVSGFSLTTYGIHWVRQSPGKGLEWLGVIWTGGSTAFNAAFMSRLSITKDNSKSQVFFKMNSLQADDTAIYYCAKVGFHSATDYWGQGTSVTVSS
VL: DVLMTQTPLSLPVTLGDQASISCRSSQNLVHSNGNTYLEWYLQKPGQSPKLLIYKVSNRFSGVPDRFSGSGSGTDFTLKISRVEAEDLGLYYCFQGSHVPFTFGSGTKLEIK
For the molecule B5, the fold over background (A450) in experiment [3] came out at 2.5 fold; in experiment [2] it was 1.1 fold.

B6: CL0020309 (antibody, V domains shown)
VH: QVQLKQSGPSLVQPSQSLSITCTVSGFSLTSYGVQWVRQSPGKGLEWLGVIWTGGTTDFNAAFKSRLSITKDNSKSQVFFKMNSLQADDSAIYYCAKIGFHSAVDYWGQGTSVTVSS
VL: DVLMTQTPLSLPVSLGDQASISCRSSQNIVHSNGNTYLEWYLQKPGQSPKLLIYKVSNRFSGVPDRFSGSGSGTDFTLKINRVEAEDLGLYYCFQGSHIPFTFGSGTQLEIK
Take B6: the fold over background (A450) in experiment [3] came to 2.2 fold; in experiment [2], 1.3 fold.

B7: CL0020141 (antibody, V domains shown)
VH: EVTLVESGGGLVQPGGSLRLSCATSGFTFTDYYMSWVRQPPGKALEWLGFIRDKANGYTTDYSASVKGRFTISRDNSQNILYLQMNTLRAEDSATYYCSRLLRAQGFAYWGQGTLVTVSA
VL: DIVMSQSPSSLGVSIGEKVIMSCTSGQSLLYSNNQKNYLAWYQQKPGQSPKLLIYWASTRESGVPDRFTGSGSGTDFTLTINSVKAEDLAVYYCQQYYRNPFTFGSGTKLEIK
With B7, the fold over background (A450) amounted to 2.1 fold in experiment [3] and 1.4 fold in experiment [2].
